B1: AHP19485-VHH1 CAR (protein)
chain: EVQLVESGGGLVQPGGSLRLSCAASERIFSIHAMGWYRQAPGKQRELVSSITIGGSTHYADSVKGRFTISRDNSKNTLYLQMNSLRAEDTAVYYCNSMLLAGTVGGSWGQGTLVTVSSGGGSGGGSGGGSGGGSEVQLVESGGGLVQPGGSLRLSCAASERIFSIHAMGWYRQAPGKQRELVSSITIGGSTHYADSVKGRFTISRDNSKNTLYLQMNSLRAEDTAVYYCNSMLLAGTVGGSWGQGTLVTVSSAAADYKDDDDKIEVMYPPPYLDNEKSNGTIIHVKGKHLCPSPLFPGPSKPFWVLVVVGGVLACYSLLVTVAFIIFWVRSKRSRLLHSDYMNMTPRRPGPTRKHYQPYAPPRDFAAYRSRVKFSRSADAPAYQQGQNQLYNELNLGRREEYDVLDKRRGRDPEMGGKPRRKNPQEGLYNELQKDKMAEAYSEIGMKGERRRGKGHDGLYQGLSTATKDTYDALHMQALPPR
B2: AHP19484-VHH3 CAR (protein)
chain: QVQLVESGGGLVKPGGSLRLSCAASGSSFHFAFMGWYRQAPGKQRELVADISPGNSTNYADPVKGRFTISRDNAKNSLYLQMNSLRAEDTAVYFCRDLRSWGAWGQGTLVTVSSGGGSGGGSGGGSGGGSQVQLVESGGGLVKPGGSLRLSCAASGSSFHFAFMGWYRQAPGKQRELVADISPGNSTNYADPVKGRFTISRDNAKNSLYLQMNSLRAEDTAVYFCRDLRSWGAWGQGTLVTVSSAAADYKDDDDKIEVMYPPPYLDNEKSNGTIIHVKGKHLCPSPLFPGPSKPFWVLVVVGGVLACYSLLVTVAFIIFWVRSKRSRLLHSDYMNMTPRRPGPTRKHYQPYAPPRDFAAYRSRVKFSRSADAPAYQQGQNQLYNELNLGRREEYDVLDKRRGRDPEMGGKPRRKNPQEGLYNELQKDKMAEAYSEIGMKGERRRGKGHDGLYQGLSTATKDTYDALHMQALPPR
B3: AHP19509-VHH1 CAR (protein)
chain: EVQLVESGGGLVQPGGSLRLSCAASGGTFNRYTMGWFRQAPGKEREFVSAISWSGGSTDYADSVKGRFTISRDNSKNTLYLQMNSLRAEDTAVYYCDTDRMPYRPVAAGILSWEANWGQGTLVTVSSGGGSGGGSGGGSGGGSEVQLVESGGGLVQPGGSLRLSCAASGGTFNRYTMGWFRQAPGKEREFVSAISWSGGSTDYADSVKGRFTISRDNSKNTLYLQMNSLRAEDTAVYYCDTDRMPYRPVAAGILSWEANWGQGTLVTVSSAAADYKDDDDKIEVMYPPPYLDNEKSNGTIIHVKGKHLCPSPLFPGPSKPFWVLVVVGGVLACYSLLVTVAFIIFWVRSKRSRLLHSDYMNMTPRRPGPTRKHYQPYAPPRDFAAYRSRVKFSRSADAPAYQQGQNQLYNELNLGRREEYDVLDKRRGRDPEMGGKPRRKNPQEGLYNELQKDKMAEAYSEIGMKGERRRGKGHDGLYQGLSTATKDTYDALHMQALPPR
B4: VHH6 CAR (protein)
chain: DVQLQESGGGLVQAGGSLRLSCAVSGYPYSSYCMGWFRQAPGKEREGVAAIDSDGRTRYADSVKGRFTISQDNAKNTLYLQMNRMKPEDTAMYYCAARFGPMGCVDLSTLSFGHWGQGTQVTVSITGGGGSGGGGSGGGGSGGGGSDVQLQESGGGLVQAGGSLRLSCAVSGYPYSSYCMGWFRQAPGKEREGVAAIDSDGRTRYADSVKGRFTISQDNAKNTLYLQMNRMKPEDTAMYYCAARFGPMGCVDLSTLSFGHWGQGTQVTVSITAAADYKDDDDKIEVMYPPPYLDNEKSNGTIIHVKGKHLCPSPLFPGPSKPFWVLVVVGGVLACYSLLVTVAFIIFWVRSKRSRLLHSDYMNMTPRRPGPTRKHYQPYAPPRDFAAYRSRVKFSRSADAPAYQQGQNQLYNELNLGRREEYDVLDKRRGRDPEMGGKPRRKNPQEGLYNELQKDKMAEAYSEIGMKGERRRGKGHDGLYQGLSTATKDTYDALHMQALPPR

molecular target: PE-Labelled Human CD7 Protein, His Tag (ACROBiosystems, Cat# CD7-HP2E3) (human) (UniProt P09564); assay: flow cytometry of CAR-T cells stained with PE-labelled human CD7 protein, His tag
Sequence (P09564 26-180 limits assumed): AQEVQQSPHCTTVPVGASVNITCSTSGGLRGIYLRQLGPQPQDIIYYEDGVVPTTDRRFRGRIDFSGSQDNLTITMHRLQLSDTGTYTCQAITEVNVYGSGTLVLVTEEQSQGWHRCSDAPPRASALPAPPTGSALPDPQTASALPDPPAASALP

| CAR expression% (cells stained by PE-labelled human CD7 protein) | Binder |
| --- | --- |
| 99.7% | B1 |
| 92.8% | B2 |
| 97.3% | B3 |
| 99.1% | B4 |

From patent EP4748858A1
